Series [1] addresses T1, E. coli β sliding clamp (wild type, His-tagged) (E. coli, UniProt P0A988 1-366). Briefly: crystal structure.
The series “crystal structure” concerns the molecule itself. Briefly: crystal structure.
For series [2], the target named is T1, E. coli β sliding clamp (wild type, …). Put plainly: SEC-MALS. A general note: In gel filtration, larger molecules generally elute earlier.

Positions count from the first letter of the chain named. Names may count otherwise.

T1 sequence (P0A988 whole entry): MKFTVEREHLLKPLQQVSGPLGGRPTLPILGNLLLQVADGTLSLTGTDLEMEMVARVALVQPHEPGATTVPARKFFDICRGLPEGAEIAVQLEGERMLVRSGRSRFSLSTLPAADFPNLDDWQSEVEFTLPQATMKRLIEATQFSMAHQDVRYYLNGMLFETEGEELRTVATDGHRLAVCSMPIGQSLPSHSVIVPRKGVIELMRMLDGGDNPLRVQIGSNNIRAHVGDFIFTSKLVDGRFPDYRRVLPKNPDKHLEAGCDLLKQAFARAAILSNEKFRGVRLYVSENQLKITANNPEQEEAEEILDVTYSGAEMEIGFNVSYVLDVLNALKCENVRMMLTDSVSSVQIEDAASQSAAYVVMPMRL

B1: E. coli Hda (full-length, wild type) (natural protein)
chain: MNTPAQLSLPLYLPDDETFASFWPGDNSSLLAALQNVLRQEHSGYIYLWAREGAGRSHLLHAACAELSQRGDAVGYVPLDKRTWFVPEVLDGMEHLSLVCIDNIECIAGDELWEMAIFDLYNRILESGKTRLLITGDRPPRQLNLGLPDLASRLDWGQIYKLQPLSDEDKLQALQLRARLRGFELPEDVGRFLLKRLDREMRTLFMTLDQLDRASITAQRKLTIPFVKEILKL
For the molecule B1, the binding result (in series [1]; in the series “crystal structure”) was “binds” in each case.

B2: E. coli Hda hook mutant (K81S, W84S, F85S) (natural protein)
chain: B1 chain with K81S, W84S, F85S
B2: in series [2], the binding result was “binds”.

B3: E. coli Hda W156A (natural protein)
chain: B1 chain with W156A
On to B3, for which, in series [2], the binding result is on record as “binds”.

These data come from publication PMC5397184 (Nucleic Acids Research, 2017).
